B1: HDV Ribozyme (parent)
chain: GGCCGGCAUGGUCCCAGCCUCCUCGCUGGCGCCGGCUGGGCAACAUUCCGAGGGGACCGUCCCCUCGGUAAUGGCGAAUGGGACCCA

The variants in this series derive from B1. Nature of the series: self-cleavage, relative activity (ratio to wild type); higher = more cleavage; co-transcriptional.
As for U37C G54U, the self-cleavage was 1.02.

In the case of U37C G54A, the self-cleavage was 1.11.

In the case of U37C G54C, the self-cleavage was 1.13.

As to G38A G54A, the self-cleavage was 0.273.

For the variant G38A A45C, the self-cleavage was found to be 0.0804.

U37A A70U: the self-cleavage was 0.196.

In the case of U37A A70C, the self-cleavage stood at 0.0639.

On to G38A G74U, for which the self-cleavage is 0.0934.

As to G38A G74A, the self-cleavage was 0.0755.

As for U37A A51C, the self-cleavage was 0.217.

Consider G38A C85G, for which the self-cleavage is 0.157.

Regarding U37G A83G, the self-cleavage stood at 0.138.

As to U37G A83U, the self-cleavage is 0.156.

As for U37G A83C, the self-cleavage came to 0.0678.

For the variant U37C U65C, the self-cleavage was determined as 1.05.

In the case of U37C U65A, the self-cleavage worked out at 0.929.

U37C G52U: the self-cleavage came out at 0.997.

As for U37C G52A, the self-cleavage came out at 1.25.

Turning to U37G G38C, the self-cleavage amounted to 0.192.

For U37A U79C, the self-cleavage is 0.0623.

Consider U37A U79G, for which the self-cleavage is 0.

For the variant U37G C86A, the self-cleavage was 0.185.

On to G38A U65A, for which the self-cleavage worked out at 0.273.

As to G38C A77G, the self-cleavage turned out to be 0.0536.

Consider G38A C57G, for which the self-cleavage was determined as 0.224.

Consider G38A C57A, for which the self-cleavage was determined as 0.128.

Regarding G38A C57U, the self-cleavage is 0.211.

As to G38A C61U, the self-cleavage is 0.0573.

Take U37C G76A: the self-cleavage was 0.972.

In the case of U37G C62U, the self-cleavage came to 0.308.

Consider U37C A71C, for which the self-cleavage turned out to be 0.917.

On to U37C A71G, for which the self-cleavage was 0.751.

Regarding U37C A71U, the self-cleavage stood at 0.807.

Turning to U37A A45G, the self-cleavage was 0.125.

Turning to G38A U72A, the self-cleavage was found to be 0.155.

G38A U72G: the self-cleavage turned out to be 0.0415.

As to U37C C41A, the self-cleavage is 0.929.

In the case of U37C C41U, the self-cleavage was 1.29.

In the case of U37C G40U, the self-cleavage was found to be 0.456.

For U37C G40C, the self-cleavage stood at 0.262.

As for U37A U69A, the self-cleavage was 0.101.

With U37A U69C, the self-cleavage turned out to be 0.415.

As to G38A U69G, the self-cleavage amounted to 0.166.

G38A U69A: the self-cleavage is 0.148.

As for U37C C62A, the self-cleavage worked out at 1.05.

Consider G38A C86A, for which the self-cleavage stood at 0.247.

For the variant G38A C86U, the self-cleavage was 0.138.

Regarding U37A G38A, the self-cleavage was 0.086.

With U37A G38U, the self-cleavage is 0.151.

For G38A C75U, the self-cleavage was 0.0443.

As to G38A C75G, the self-cleavage came to 0.0302.

Turning to U37A A77G, the self-cleavage came to 0.415.

Consider U37A A77U, for which the self-cleavage is 0.104.

Take U37A A77C: the self-cleavage came out at 0.0426.

For U37A C85U, the self-cleavage was 0.259.

Take U37A C85G: the self-cleavage amounted to 0.0346.

Turning to U37A G82C, the self-cleavage is 0.0405.

For U37G C48A, the self-cleavage was found to be 0.277.

As to U37G G39U, the self-cleavage is 0.

Take U37A G80A: the self-cleavage is 0.145.

U37A G80U: the self-cleavage amounted to 0.0727.

For the variant G38A G82U, the self-cleavage was determined as 0.0405.

As for U37A G67A, the self-cleavage amounted to 0.215.

U37A G67U: the self-cleavage is 0.272.

On to U37A G73A, for which the self-cleavage came to 0.0346.

For U37A G73U, the self-cleavage was found to be 0.225.

Take U37A G73C: the self-cleavage is 0.0378.

As for G38A C48A, the self-cleavage is 0.121.

G38A C48U: the self-cleavage is 0.115.

Regarding U37A U46G, the self-cleavage was found to be 0.128.

In the case of U37A U46A, the self-cleavage is 0.185.

Take U37A U46C: the self-cleavage came out at 0.0852.

For the variant G38C A78U, the self-cleavage came out at 0.0308.

As for G38C A51G, the self-cleavage came to 0.309.

Regarding G38C C48U, the self-cleavage came out at 0.161.

Consider G38C C48G, for which the self-cleavage is 0.133.

For G38C C48A, the self-cleavage came to 0.104.

For U37G C63G, the self-cleavage was found to be 0.0615.

Take U37G C63U: the self-cleavage is 0.151.

Turning to U37C C49U, the self-cleavage is 0.928.

U37C C49A: the self-cleavage is 1.31.

As to U37C A51C, the self-cleavage was 0.966.

With U37C A51U, the self-cleavage was found to be 0.923.

U37A C41A: the self-cleavage is 0.237.

For G38A A42C, the self-cleavage was 0.148.

For G38A A42U, the self-cleavage came to 0.

With G38A A42G, the self-cleavage was 0.095.

U37C G59U: the self-cleavage stood at 1.25.

Turning to U37C G59C, the self-cleavage came out at 1.16.

With U37G G73C, the self-cleavage was found to be 0.0791.

As to U37G G73A, the self-cleavage was 0.

For the variant G38C C49U, the self-cleavage was determined as 0.277.

In the case of U37C G74C, the self-cleavage amounted to 0.193.

Turning to U37G U72G, the self-cleavage is 0.115.

With G38A U60C, the self-cleavage was found to be 0.0272.

G38A U60G: the self-cleavage turned out to be 0.0386.

Consider U37C A45G, for which the self-cleavage is 0.762.

Turning to U37C A45C, the self-cleavage was 0.539.

In the case of G38C A70C, the self-cleavage stood at 0.291.

As to G38C A70U, the self-cleavage was determined as 0.185.

For the variant U37G U60G, the self-cleavage worked out at 0.0831.

Take U37A C62G: the self-cleavage came to 0.151.

Take U37G A78U: the self-cleavage came out at 0.

On to U37G A78C, for which the self-cleavage was determined as 0.196.

For the variant U37A C64U, the self-cleavage came to 0.185.

As to U37A C64G, the self-cleavage stood at 0.354.

Consider U37C U79A, for which the self-cleavage came to 0.554.

For the variant U37C U79G, the self-cleavage came to 0.465.

With U37C C84A, the self-cleavage is 0.697.

With U37C C84G, the self-cleavage is 0.587.

As for U37A G50C, the self-cleavage is 0.0489.

Take U37A G50U: the self-cleavage amounted to 0.128.

Take U37G G55U: the self-cleavage turned out to be 0.214.

As to U37G G55A, the self-cleavage stood at 0.0831.

As to U37G G55C, the self-cleavage amounted to 0.141.

As for U37C G38U, the self-cleavage came out at 0.0773.

For the variant G38A A56G, the self-cleavage was 0.108.

In the case of G38C A45G, the self-cleavage was 0.227.

Regarding G38C A45U, the self-cleavage was 0.213.

G38C A45C: the self-cleavage stood at 0.0678.

For U37C A83C, the self-cleavage came out at 0.383.

For U37A C58U, the self-cleavage was 0.405.

Consider U37A C58A, for which the self-cleavage is 0.225.

Consider U37G A70G, for which the self-cleavage was determined as 0.

With U37G A70U, the self-cleavage came out at 0.229.

Consider U37G G67C, for which the self-cleavage is 0.229.

For the variant U37G G67U, the self-cleavage stood at 0.18.

Take U37A A78G: the self-cleavage is 0.131.

U37A G53A: the self-cleavage is 0.0594.

With U37A G53U, the self-cleavage is 0.302.

Turning to U37G A45G, the self-cleavage was determined as 0.0692.

For G38C C57G, the self-cleavage came to 0.356.

For U37G U69C, the self-cleavage was 0.128.

With U37G U69G, the self-cleavage was 0.0723.

For the variant U37G U69A, the self-cleavage amounted to 0.119.

As to G38C C62A, the self-cleavage came out at 0.354.

Take G38C C62G: the self-cleavage is 0.208.

Take G38C A43U: the self-cleavage came to 0.116.

With G38C A43G, the self-cleavage turned out to be 0.219.

Turning to G38A C58U, the self-cleavage came out at 0.175.

For the variant U37G A77C, the self-cleavage stood at 0.158.

With U37G A77G, the self-cleavage amounted to 0.0831.

On to U37G A51C, for which the self-cleavage worked out at 0.0504.

Consider U37G A51U, for which the self-cleavage worked out at 0.

Take U37A A71G: the self-cleavage stood at 0.128.

In the case of U37G U47A, the self-cleavage turned out to be 0.158.

Take U37G U47C: the self-cleavage worked out at 0.128.

With U37C G50U, the self-cleavage worked out at 0.923.

Consider U37C C63G, for which the self-cleavage was found to be 0.965.

U37C C63A: the self-cleavage was 1.03.

As for U37C G53U, the self-cleavage is 1.13.

As for U37G G82C, the self-cleavage turned out to be 0.128.

Consider U37G G82U, for which the self-cleavage was 0.0773.

On to U37C C64G, for which the self-cleavage was determined as 0.604.

For the variant U37C C64U, the self-cleavage worked out at 1.19.

Consider G38C A56G, for which the self-cleavage was found to be 0.197.

With G38C A56C, the self-cleavage is 0.181.

As to G38C A56U, the self-cleavage is 0.262.

As for U37C C66A, the self-cleavage came out at 1.25.

For the variant U37C C44G, the self-cleavage turned out to be 0.63.

Turning to U37C C44A, the self-cleavage stood at 0.499.

U37C U60A: the self-cleavage came out at 1.27.

With U37C U60C, the self-cleavage turned out to be 0.864.

Regarding G38A U47C, the self-cleavage came out at 0.0767.

Consider U37C C61U, for which the self-cleavage came to 0.884.

As to G38A, the self-cleavage amounted to 0.157.

On to G38C, for which the self-cleavage is 0.239.
